Biological target: C1QBP Recombinant Human Protein (gC1q-R) (human) (UniProt Q07021)
Assay: ELISA; solid-phase microplate competition: gC1q-R coated on wells; polyclonal antibodies against gC1q-R amino acids 76-104 or 221-249 added at 4 µg/mL 1 h before idInlB at 0.4 µg/mL; idInlB without antibodies as positive control; bound idInlB detected with anti-His polyclonal antibody

Sequence of UniProt Q07021 (Q07021 74-282): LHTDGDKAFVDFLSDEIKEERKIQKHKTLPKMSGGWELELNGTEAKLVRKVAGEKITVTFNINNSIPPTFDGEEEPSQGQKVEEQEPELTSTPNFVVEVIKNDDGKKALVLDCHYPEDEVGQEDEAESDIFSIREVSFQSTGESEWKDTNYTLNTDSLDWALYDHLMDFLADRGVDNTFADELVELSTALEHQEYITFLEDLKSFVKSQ

InlB internalin domain isoform idInlB9 (lineage I, from L. monocytogenes strain VIMHA015) (from UniProt P0DQD2 36-321) (domain or fragment)
fold decrease of binding with the antibody against gC1q-R amino acids 76-104, against idInlB9 without antibody: 1.6 fold
fold decrease of binding with the antibody against gC1q-R amino acids 221-249, against idInlB9 without antibody: 1.25 fold
